PMC8199036, “Improved Tumor-Targeting with Peptidomimetic Analogs of Minigastrin ^177Lu-PP-F11N” (Cancers, 2021)
Read-outs that look alike come from different tables or passages of the source. Residues, ends and D or L forms follow the SMILES beside them.

Key:
[1] = biodistribution in mice with CCK2R-positive xenografts; assay type: in vivo, female CD1-nu mice; conditions: female, CD1-nu, mouse, total radioactivity; for tissue uptake at 4 h / tissue uptake at 24 h / tissue uptake at 1 h: in vivo
Description: (§1) Procedures for biodistribution studies with ^177Lu-labeled conjugates (10 pmol, 100 µL, 0.1 µM in PBS, 0.5 MBq, 1 µg/kg) in female CD1-nu mice with xenografts of A431-CCK2R cells at 1, 4, and 24 h p.i., as well as blocking experiments at 4 h p.i. with a 6000-fold excess of minigastrin have been reported previously and were followed without modifications. Statistical analysis was performed via GraphPad Prism using two-sided analysis of variance. n = 4 animals per group.

[2] = test system: xenografts of A431-CCK2R cells; assay: as above; assay type: in vivo, female CD1-nu mice
Description: as §1

[3] = 10 pmol, Stomach (CCK2R-positive) uptake
[4] = 10 pmol, Tumor (CCK2R-positive) uptake
[5] = tumor / blood, 10 pmol, read-out: Tumor-to-Blood ratio
[6] = tumor / kidneys, 10 pmol, read-out: Tumor-to-Kidneys ratio
[7] = tumor / muscle, 10 pmol, read-out: Tumor-to-Muscle ratio
[8] = tumor / stomach, 10 pmol, read-out: Tumor-to-Stomach ratio
[9] = female, CD1-nu, mouse, in vivo, 10 pmol, 4 h

## CCCC[C@H](NC(=O)[C@H](Cc1c[nH]c2ccccc12)NC(=O)Cn1cc([C@H](Cc2ccc(O)cc2)NC(=O)[C@H](C)NC(=O)[C@@H](CCC(=O)O)NC(=O)[C@@H](CCC(=O)O)NC(=O)[C@@H](CCC(=O)O)NC(=O)[C@@H](CCC(=O)O)NC(=O)[C@@H](CCC(=O)O)NC(=O)[C@@H](CCC(=O)O)NC(=O)CN2CCN(CC(=O)O)CCN(CC(=O)O)CCN(CC(=O)O)CC2)nn1)C(=O)N[C@@H](CC(=O)O)C(=O)N[C@@H](Cc1ccccc1)C(N)=O [NMG 2, DOTA-(DGlu)6-Ala-Tyr-Ψ[Tz]-Gly-Trp-Nle-Asp-Phe-NH2] (HELM PEPTIDE1{[O=C(O)CN1CCN(CC(=O)O)CCN(CC(=O)[*:2])CCN(CC(=O)O)CC1].[dE].[dE].[dE].[dE].[dE].[dE].A.[O=C(Cn1cc([C@H](Cc2ccc(O)cc2)N[*:1])nn1)[*:2]].W.[Nle].D.F.[am]}$$$$V2.0)
[1]; 10 pmol, Blood uptake
  tissue uptake at 4 h: 0.01 %ID/g
  tissue uptake at 24 h: < 0.01 %ID/g
[1]; 10 pmol, Bone uptake
  tissue uptake at 1 h: 0.29 %ID/g
  tissue uptake at 4 h: 0.1 %ID/g
  tissue uptake at 24 h: 0.07 %ID/g
[1]; 10 pmol, Heart uptake
  tissue uptake at 1 h: 0.07 %ID/g
  tissue uptake at 4 h: 0.02 %ID/g
  tissue uptake at 24 h: 0.01 %ID/g
[1]; 10 pmol, Intestines uptake
  tissue uptake at 1 h: 0.15 %ID/g
  tissue uptake at 4 h: 0.07 %ID/g
  tissue uptake at 24 h: 0.06 %ID/g
[1]; 10 pmol, Kidneys uptake
  tissue uptake at 1 h: 2.19 %ID/g
  tissue uptake at 4 h: 2.07 %ID/g
  tissue uptake at 24 h: 1.33 %ID/g
[1]; 10 pmol, Liver uptake
  tissue uptake at 1 h: 0.11 %ID/g
  tissue uptake at 4 h: 0.05 %ID/g
  tissue uptake at 24 h: 0.03 %ID/g
[1]; 10 pmol, Lung uptake
  tissue uptake at 1 h: 0.18 %ID/g
  tissue uptake at 4 h: 0.04 %ID/g
  tissue uptake at 24 h: 0.02 %ID/g
[1]; 10 pmol, Muscle uptake
  tissue uptake at 1 h: 0.05 %ID/g
  tissue uptake at 4 h: 0.01 %ID/g
  tissue uptake at 24 h: 0.01 %ID/g
[1]; 10 pmol, Pancreas uptake
  tissue uptake at 1 h: 0.33 %ID/g
  tissue uptake at 4 h: 0.28 %ID/g
  tissue uptake at 24 h: 0.17 %ID/g
[1]; 10 pmol, Spleen uptake
  tissue uptake at 1 h: 0.06 %ID/g
  tissue uptake at 4 h: 0.03 %ID/g
  tissue uptake at 24 h: 0.02 %ID/g
[1]; [3]
  tissue uptake at 1 h: 2.85 %ID/g
  tissue uptake at 4 h: 2.66 %ID/g
  tissue uptake at 24 h: 1.63 %ID/g
[1]; [4]
  tissue uptake at 1 h: 5.94 %ID/g
  tissue uptake at 4 h: 7.15 %ID/g
  tissue uptake at 24 h: 4.73 %ID/g
[1]; Blood uptake
  tissue uptake at 4 h: 0.01 %ID/g
[1]; Heart uptake
  tissue uptake at 4 h: 0.02 %ID/g
[1]; Intestines uptake
  tissue uptake at 4 h: 0.1 %ID/g
[1]; Kidneys uptake
  tissue uptake at 4 h: 2.24 %ID/g
[1]; Liver uptake
  tissue uptake at 4 h: 0.06 %ID/g
[1]; Lung uptake
  tissue uptake at 4 h: 0.04 %ID/g
[1]; Pancreas uptake
  tissue uptake at 4 h: 0.06 %ID/g
[1]; Spleen uptake
  tissue uptake at 4 h: 0.03 %ID/g
[1]; Stomach (CCK2R-positive) uptake
  tissue uptake at 4 h: 0.46 %ID/g
[1]; Tumor (CCK2R-positive) uptake
  tissue uptake at 4 h: 2.54 %ID/g
[1]; [5]
  tissue to tissue ratio at 1 h: 31.1 ± 10.3
  tissue to tissue ratio at 4 h: 715 ± 133
  tissue to tissue ratio at 24 h: 4260 ± 1690
[1]; [6]
  tissue to tissue ratio at 1 h: 2.76 ± 0.79
  tissue to tissue ratio at 4 h: 3.5 ± 0.54
  tissue to tissue ratio at 24 h: 3.78 ± 1.48
[1]; [7]
  tissue to tissue ratio at 1 h: 124 ± 42.1
  tissue to tissue ratio at 4 h: 715 ± 133
  tissue to tissue ratio at 24 h: 441 ± 73.7
[1]; [8]
  tissue to tissue ratio at 1 h: 2.68 ± 1.57
  tissue to tissue ratio at 4 h: 3.08 ± 1.1
  tissue to tissue ratio at 24 h: 3.13 ± 1.28
[2]; 4 h
  Tumor washout: tumor uptake relative to 1h: 120%
[2]; 24 h
  Tumor washout: tumor uptake relative to 1h: 80%
[2]; [9]
  Bone uptake: 0.09 % i.A./g
  Muscle uptake: 0.02 % i.A./g
